Assay results reported in publication PMC11633110.
Each block holds one substance with its values, some of them ahead of it.

How the values were obtained:
[1] = biological target: T1, SydR' (WT, CC) (Sinorhizobium meliloti Rm2011) (UniProt Q92XY2); assay: EMSA; conditions: 10 mM Tris-HCl pH 8, 50 mM KCl, 0.5 mM EDTA, 10% glycerol, 0.5 mM DTT, 10 nM DNA, 25°C 25 min; 8% PAGE in 0.5x TBE
T1 sequence: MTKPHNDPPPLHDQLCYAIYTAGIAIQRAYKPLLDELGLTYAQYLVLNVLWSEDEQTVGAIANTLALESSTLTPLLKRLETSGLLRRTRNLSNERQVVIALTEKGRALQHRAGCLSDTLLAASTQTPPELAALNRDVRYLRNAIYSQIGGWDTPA

[2] = biological target: His-tagged recombinant SydR (SydR′), wild type (Sinorhizobium meliloti); assay: cross-linking; intersubunit disulfide bond assay: proteins reduced in 100 mM DTT for 2 h, desalted, oxidised with 100 mM NaOCl for 30 min, 100 mM N-ethylmaleimide for 2 h at room temperature, 10% non-reducing SDS-PAGE; shows covalent (disulfide) dimers only
[3] = biological target: SydRC16S (SC) (Sinorhizobium meliloti); assay: as above
[4] = biological target: SydRC114S (CS) (Sinorhizobium meliloti); assay: as above

Substance: CCGCCTTCCAGATCAGTACCGGCTTGCTTAGCCAAGCGCTCGGCCAAACGGACTGAGGCCTCCGTTGCGATCCACCCAGGCGACACCCGCACGACCCGGATACCTTTGGACGAAATTTCCTTCGCTATCGACTTGCCG (double strand) [SMa2019 internal fragment, 138 bp]
- binding [1]: no binding

- stoichiometry N [2]: 2
Substance: His-tagged recombinant SydR (SydR′), wild type (natural protein)

- stoichiometry N [3]: 2
Substance: SydRC16S (SC) (natural protein)

- stoichiometry N [4]: 2
Substance: SydRC114S (CS) (natural protein)

Substance: TCTGGGCTCCTTTGCGCACCAATATAATCAAGATTACCGCGAAAACCAATATCGCGATAAGAGATATGTTGACGAGCAGTTCAATATCTGACAACTTAAATATATCGCGATAACAGTTATCGCTATCAACGAAAGGAAAAAGCC (double strand) [sydR-SMa2023 intergenic region, 144 bp]
- binding [1]: binds
